Key:
[1] = target: RAGE peptide (Sino Biological), receptor for advanced glycation end products (UniProt Q15109); assay: SPR; RANK or RAGE (5 μg/ml in 10 mM sodium acetate, pH 5.5) immobilised on the sensor chip; AOPPs 350 to 1050 μg/ml injected, 1050 μg/ml RSA as vehicle; 25 °C, 30 μl/min; PlexArray HT A100
[2] = target: RANK peptide (Sino Biological), receptor activator of nuclear factor κ B (UniProt Q9Y6Q6); assay: as above
Sequence of UniProt Q9Y6Q6 (Q9Y6Q6 30-212): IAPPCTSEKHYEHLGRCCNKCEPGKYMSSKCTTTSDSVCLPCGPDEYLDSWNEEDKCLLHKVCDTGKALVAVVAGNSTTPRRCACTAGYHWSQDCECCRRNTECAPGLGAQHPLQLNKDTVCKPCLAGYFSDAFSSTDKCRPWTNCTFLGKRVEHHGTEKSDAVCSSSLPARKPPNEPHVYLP

Sequence of UniProt Q15109 (Q15109 23-342): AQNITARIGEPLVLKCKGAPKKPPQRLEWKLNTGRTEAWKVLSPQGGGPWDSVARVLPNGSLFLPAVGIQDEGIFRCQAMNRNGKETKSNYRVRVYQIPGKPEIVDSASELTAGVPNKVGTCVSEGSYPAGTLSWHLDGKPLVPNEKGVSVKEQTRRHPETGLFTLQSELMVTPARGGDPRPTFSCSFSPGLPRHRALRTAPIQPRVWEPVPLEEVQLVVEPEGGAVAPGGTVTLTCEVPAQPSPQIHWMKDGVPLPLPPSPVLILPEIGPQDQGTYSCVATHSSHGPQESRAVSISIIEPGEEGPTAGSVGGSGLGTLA

- Kd [1]: 1340 nM
- Kd [2]: 3020 nM
Substance: Advanced oxidation protein products (AOPPs), prepared from rat serum albumin with hypochlorous acid (from UniProt P02770 25-608)

Source: PMC8671415
